# Source: patent US20060142193
# T1: serum response factor (SRF), P11831
# T1 chain: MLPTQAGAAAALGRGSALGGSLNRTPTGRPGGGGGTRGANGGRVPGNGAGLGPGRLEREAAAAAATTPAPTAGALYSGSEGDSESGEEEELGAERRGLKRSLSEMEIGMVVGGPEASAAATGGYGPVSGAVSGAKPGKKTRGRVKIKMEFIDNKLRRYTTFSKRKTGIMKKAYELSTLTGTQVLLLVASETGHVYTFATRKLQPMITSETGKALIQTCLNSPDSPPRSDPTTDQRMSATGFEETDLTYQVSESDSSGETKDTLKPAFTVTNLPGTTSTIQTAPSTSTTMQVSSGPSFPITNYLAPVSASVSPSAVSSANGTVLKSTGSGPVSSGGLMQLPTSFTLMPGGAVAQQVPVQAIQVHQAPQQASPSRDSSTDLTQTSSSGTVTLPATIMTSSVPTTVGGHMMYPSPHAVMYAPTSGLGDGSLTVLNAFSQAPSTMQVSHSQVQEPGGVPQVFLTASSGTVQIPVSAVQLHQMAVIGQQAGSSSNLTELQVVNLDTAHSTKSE
# Target: T1, serum response factor (SRF), P11831
protein,measurement,value
ROCK1Δ1 (C-terminally truncated mutant (1-1080) of ROCK1) (protein) MSTGDSFETRFEKMDNLLRDPKSEVNSDCLLDGLDALVYDLDFPALRKNKNIDNFLSRYKDTINKIRDLRMKAEDYEVVKVIGRGAFGEVQLVRHKSTRKVYAMKLLSKFEMIKRSDSAFFWEERDIMAFANSPWVVQLFYAFQDDRYLYMVMEYMPGGDLVNLMSNYDVPEKWARFYTAEVVLALDAIHSMGFIHRDVKPDNMLLDKSGHLKLADFGTCMKMNKEGMVRCDTAVGTPDYISPEVLKSQGGDGYYGRECDWWSVGVFLYEMLVGDTPFYADSLVGTYSKIMNHKNSLTFPDDNDISKEAKNLICAFLTDREVRLGRNGVEEIKRHLFFKNDQWAWETLRDTVAPVVPDLSSDIDTSNFDDLEEDKGEEETFPIPKAFVGNQLPFVGFTYYSNRRYLSSANPNDNRTSSNADKSLQESLQKTIYKLEEQLHNEMQLKDEMEQKCRTSNIKLDKIMKELDEEGNQRRNLESTVSQIEKEKMLLQHRINEYQRKAEQENEKRRNVENEVSTLKDQLEDLKKVSQNSQLANEKLSQLQKQLEEANDLLRTESDTAVRLRKSHTEMSKSISQLESLNRELQERNRILENSKSQTDKDYYQLQAILEAERRDRGHDSEMIGDLQARITSLQEEVKHLKHNLEKVEGERKEAQDMLNHSEKEKNNLEIDLNYKLKSLQQRLEQEVNEHKVTKARLTDKHQSIEEAKSVAMCEMEKKLKEEREAREKAENRVVQIEKQCSMLDVDLKQSQQKLEHLTGNKERMEDEVKNLTLQLEQESNKRLLLQNELKTQAFEADNLKGLEKQMKQEINTLLEAKRLLEFELAQLTKQYRGNEGQMRELQDQLEAEQYFSTLYKTQVKELKEEIEEKNRENLKKIQELQNEKETLATQLDLAETKAESEQLARGLLEEQYFELTQESKKAASRNRQEITDKDHTVSRLEEANSMLTKDIEILRRENEELTEKMKKAEEEYKLEKEEEISNLKAAFEKNINTERTLKTQAVNKLAEIMNRKDFKIDRKKANTQDLRKKEKENRKLQLELNQEREKFNQMVVKHQKELNDMQAQLVEECAHRNELQMQL,level of full-length SRF after incubation with active caspase 3 in the presence or absence of ROCK1Δ1,The full-length level was markedly decreased in the presence of active ROCK1
